The values that follow come from IntAct's records for PubMed 26886794.

Sequences and labels used below:
B1: Histone-lysine N-methyltransferase SETD1B (Homo sapiens), Q9UPS6-2 (parent)
chain: MENSHPPHHHHQQPPPQPGPSGERRNHHWRSYKLMIDPALKKGHHKLYRYDGQHFSLAMSSNRPVEIVEDPRVVGIWTKNKELELSVPKFKIDEFYVGPVPPKQVTFAKLNDNIRENFLRDMCKKYGEVEEVEILYNPKTKKHLGIAKVVFATVRGAKDAVQHLHSTSVMGNIIHVELDTKGETRMRFYELLVTGRYTPQTLPVGELDAVSPIVNETLQLSDALKRLKDGGLSAGCGSGSSSVTPNSGGTPFSQDTAYSSCRLDTPNSYGQGTPLTPRLGTPFSQDSSYSSRQPTPSYLFSQDPAVTFKARRHESKFTDAYNRRHEHHYVHNSPAVTAVAGATAAFRGSSDLPFGAVGGTGGSSGPPFKAQPQDSATFAHTPPPAQATPAPGFKSAFSPYQTPVAHFPPPPEEPTATAAFGARDSGEFRRAPAPPPLPPAEPLAKEKPGTPPGPPPPDTNSMELGGRPTFGWSPEPCDSPGTPTLESSPAGPEKPHDSLDSRIEMLLKEQRTKLLFLREPDSDTELQMEGSPISSSSSQLSPLAPFGTNSQPGFRGPTPPSSRPSSTGLEDISPTPLPDSDEDEELDLGLGPRPPPEPGPPDPAGLLSQTAEVALDLVGDRTPTSEKMDEGQQSSGEDMEISDDEMPSAPITSADCPKPMVVTPGAAAVAAPSVLAPTLPLPPPPGFPPLPPPPPPPPPQPGFPMPPPLPPPPPPPPPAHPAVTVPPPPLPAPPGVPPPPILPPLPPFPPGLFPVMQVDMSHVLGGQWGGMPMSFQMQTQVLSRLMTGQGACPYPPFMAAAAAAASAGLQFVNLPPYRGPFSLSNSGPGRGQHWPPLPKFDPSVPPPGYMPRQEDPHKATVDGVLLVVLKELKAIMKRDLNRKMVEVVAFRAFDEWWDKKERMAKASLTPVKSGEHKDEDRPKPKDRIASCLLESWGKGEGLGYEGLGLGIGLRGAIRLPSFKVKRKEPPDTTSSGDQKRLRPSTSVDEEDEESERERDRDMADTPCELAKRDPKGVGVRRRPARPLELDSGGEEDEKESLSEEQESTEEEEEAEEEEEEEDDDDDDSDDRDESENDDEDTALSEASEKDEGDSDEEETVSIVTSKAEATSSSESSESSEFESSSESSPSSSEDEEEVVAREEEEEEEEEEMVAEESMASAGPEDFEQDGEEAALAPGAPAVDSLGMEEEVDIETEAVAPEERPSMLDEPPLPVGVEEPADSREPPEEPGLSQEGAMLLSPEPPAKEVEARPPLSPERAPEHDLEVEPEPPMMLPLPLQPPLPPPRPPRPPSPPPEPETTDASHPSVPPEPLAEDHPPHTPGLCGSLAKSQSTETVPATPGGEPPLSGGSSGLSLSSPQVPGSPFSYPAPSPSLSSGGLPRTPGRDFSFTPTFSEPSGPLLLPVCPLPTGRRDERSGPLASPVLLETGLPLPLPLPLPLPLALPAVLRAQARAPTPLPPLLPAPLASCPPPMKRKPGRPRRSPPSMLSLDGPLVRPPAGAALGRELLLLPGQPQTPVFPSTHDPRTVTLDFRNAGIPAPPPPLPPQPPPPPPPPPVEPTKLPFKELDNQWPSEAIPPGPRGRDEVTEEYMELAKSRGPWRRPPKKRHEDLVPPAGSPELSPPQPLFRPRSEFEEMTILYDIWNGGIDEEDIRFLCVTYERLLQQDNGMDWLNDTLWVYHPSTSLSSAKKKKRDDGIREHVTGCARSEGFYTIDKKDKLRYLNSSRASTDEPPADTQGMSIPAQPHASTRAGSERRSEQRRLLSSFTGSCDSDLLKFNQLKFRKKKLKFCKSHIHDWGLFAMEPIAADEMVIEYVGQNIRQVIADMREKRYEDEGIGSSYMFRVDHDTIIDATKCGNFARFINHSCNPNCYAKVITVESQKKIVIYSKQHINVNEEITYDYKFPIEDVKIPCLCGSENCRGTLN

The test covers variants of B1. Conditions: with ASH2L.
Consider R1819A, for which the “effect of a mutation on the interaction” value was “disrupting interaction strength”.
